Assay results: patent US20200216495A1 (ADRX, published 2020)
Square brackets hold non-standard residues; d marks the D form. Primed or numbered codes have the meaning given here. Ends that are not written are not given here. dCha = N[C@H](CC1CCCCC1)C(=O)O; dNle = CCCC[C@@H](N)C(=O)O; PEG2′ = not defined here; Tam = not defined here

Experiments:
Assay in all cases: cell-based or functional assay
[1] = molecular target: T1, Ac-VQIINK-NH2 (SEQ ID NO: 23)
T1 sequence (peptide, N-terminal acetyl (Ac); C-terminal amide (NH2)): RLKIRW

Tau40 P301L protein = Tau40 P301L protein (human)
[2] = molecular target: T2, Tau40 P301L protein (human); remark: listed apart in the source
T2 sequence: WIKIRR

[3] = molecular target: T3, His-Tau40 P301L Tau fibrils (human)
T3 chain: RLRIRW

[dL][dK][dI][dR][dNle][dH][dY] [lkiruhy] was tested, and the VQIINK Inhibition IC50 [1] was 2.07 µm.

{TAMRA5-PEG2′}-[dW][dR][dA][dK][dA][dR][dA][dW]-OH [TAMRA5-PEG2-wrakaraw-OH] was tested, and the “IC50, Tau40 assay-Modified peptides (ThT)” value (Tau40 P301L protein) was 9.17 µM.

With [dNle][dR][dL][dK][dV][dR][dW] [urlkvrw] the VQIINK Inhibition IC50 [1] was 2.29 µm.

With YGRKKRRQRRRGGSGG[dR][dL][dK][dV][dR][dW] [[…]-GGSGG-rlkvrw] the “IC50, Tau40 assay-Modified peptides (ThT)” value (Tau40 P301L protein) was 1.73 µM.

In the case of [dL][dK][dNle][dR][dI][dH][dY] [lkurihy], the VQIINK Inhibition IC50 [1] is reported as 1.5 µm.

In the case of Tam-RRRRRRRRRGGSGG[dR][dL][dK][dV][dR][dW] (reading uncertain; also: printed as Tam-RRRRRRRRR-GGSGG-rlkvrw) [Tam-RRRRRRRRR-GGSGG-rlkvrw], the “IC50, Tau40 assay-Modified peptides (ThT)” value (Tau40 P301L protein) is reported as 20.1 µM.

Work on [dW][dR][dNle][dK][dNle][dR][dW] [wrukurw] yielded a VQIINK Inhibition IC50 [1] of 1.73 µm and an IC50, Tau40 assay (ThT) [2] of 7.21 µM.

[dW][dR][dL][dK][dNle][dR][dW] [wrlkurw] showed a VQIINK Inhibition IC50 [1] of 1.41 µm.

[dW][dR][dL][dK][dCha][dR][dW] (not fully specified; printed as wrlkbrw) [wrlkbrw] was tested, and the VQIINK Inhibition IC50 [1] was 0.35 µm.

In the case of Tam-RRRRRRRRRRGGSGG[dW][dR][dI][dW][dI][dR][dY][dW] (reading uncertain; also: printed as Tam-RRRRRRRRRR-GGSGG-wriwiryw) [Tam-RRRRRRRRRR-GGSGG-wriwiryw], the “IC50, Tau40 assay-Modified peptides (ThT)” value (Tau40 P301L protein) is reported as 4.94 µM.

[dNle][dK][dI][dR][dI][dH][dY] [ukirihy] showed a VQIINK Inhibition IC50 [1] of 1.12 µm.

For [dL][dK][dNle][dR][dNle][dH][dY] [lkuruhy], the VQIINK Inhibition IC50 [1] was 0.87 µm.

RRRRRRRRRGGSGG[dR][dL][dK][dV][dR][dW] [RRRRRRRRR-GGSGG-rlkvrw] was tested, and the “IC50, Tau40 assay-Modified peptides (ThT)” value (Tau40 P301L protein) was 6.07 µM.

For Tam-YGRKKRRQRRRGGSGG[dR][dL][dK][dV][dR][dW] (reading uncertain) [Tam-[…]-GGSGG-rlkvrw], the “IC50, Tau40 assay-Modified peptides (ThT)” value (Tau40 P301L protein) was 6.6 µM.

[dCha][dR][dL][dK][dV][dR][dW] (not fully specified; printed as brlkvrw) [brlkvrw] gave a VQIINK Inhibition IC50 [1] of 2.31 µm.

In the case of [dW][dR][dCha][dK][dV][dR][dW] (not fully specified; printed as wrbkvrw) [wrbkvrw], the VQIINK Inhibition IC50 [1] is reported as 0.41 µm.

Work on [dW][dR][dNle][dK][dV][dR][dW] [wrukvrw] yielded a VQIINK Inhibition IC50 [1] of 2.1 µm.

With Tam-RRRRRRRRRRGGSGG[dE][dL][dK][dI][dV][dW] (reading uncertain; also: printed as Tam-RRRRRRRRRR-GGSGG-elkivw) [Tam-RRRRRRRRRR-GGSGG-elkivw] the “EC50, HEK cell assay (TauRD(P301S) split luciferase, seeded with tau fibrils)” value [3] was 5.6 µM.

[dW][dR][dCha][dK][dCha][dR][dW] (not fully specified; printed as wrbkbrw) [wrbkbrw] gave a VQIINK Inhibition IC50 [1] of 0.77 µm and an IC50, Tau40 assay (ThT) [2] of 9.33 µM.
